Values joined by “and” are separate entries in the source; they are usually repeats but may differ in a detail not shown here. Equal entries are not always repeated. Bridges are numbered along the chain shown (N, C = ends). Where no end group is shown, it is not given here. [ ]: non-standard residue; d: D form. NMeW = CN[C@@H](Cc1c[nH]c2ccccc12)C(=O)O; Chg = N[C@H](C(=O)O)C1CCCCC1; αMeV = CC(C)[C@](C)(N)C(=O)O; αMeS = C[C@](N)(CO)C(=O)O; NMeA = CN[C@@H](C)C(=O)O
T1: β-catenin (UniProt P35222 134-665, limits assumed, biotinylated in the SPR and plate assays)
T1 sequence (looked up): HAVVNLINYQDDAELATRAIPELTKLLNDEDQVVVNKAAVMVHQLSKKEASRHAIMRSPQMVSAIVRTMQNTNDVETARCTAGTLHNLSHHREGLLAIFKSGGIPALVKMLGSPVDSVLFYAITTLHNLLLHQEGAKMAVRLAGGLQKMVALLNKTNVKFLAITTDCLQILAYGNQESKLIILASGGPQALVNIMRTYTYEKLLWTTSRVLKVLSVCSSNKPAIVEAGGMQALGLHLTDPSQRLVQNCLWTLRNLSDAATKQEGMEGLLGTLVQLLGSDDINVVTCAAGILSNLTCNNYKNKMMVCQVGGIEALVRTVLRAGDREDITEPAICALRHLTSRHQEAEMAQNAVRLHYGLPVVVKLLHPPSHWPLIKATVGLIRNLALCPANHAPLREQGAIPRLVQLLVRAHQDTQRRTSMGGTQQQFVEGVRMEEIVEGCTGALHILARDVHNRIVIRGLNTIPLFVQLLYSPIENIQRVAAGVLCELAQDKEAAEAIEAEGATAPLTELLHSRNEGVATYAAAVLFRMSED


Columns and labels:
[1] = biological target: T1, β-catenin; test: cell-based or functional assay
[2] = biological target: T1, β-catenin; test: competitive FP
Outline: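 Competitive fluorescence polarization with inhibitor peptide serially diluted from 10 nM to 30 uM; polarization read at 470 nm excitation, 520 nm emission. Experiments performed three times.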

Binder | Wnt Reporter EC50 [1] | Kd [2] | Proliferation IC50, Endo cells [1] | Proliferation IC50, Wnt dependent cells [1]
RWPQKILDEHVRRVWR (HELM PEPTIDE1{[ac].R.W.P.Q.K.I.L.D.E.H.V.R.R.V.W.R.[am]}$PEPTIDE1,PEPTIDE1,6:R3-10:R3$$$V2.0; SMILES CC[C@H](C)[C@@H]1NC(=O)[C@@H](NC(=O)[C@H](CCC(N)=O)NC(=O)[C@@H]2CCCN2C(=O)[C@H](Cc2c[nH]c3ccccc23)NC(=O)[C@H](CCCNC(=N)N)NC(C)=O)CCCCNC(=O)CC[C@@H](C(=O)N[C@@H](Cc2c[nH]cn2)C(=O)N[C@H](C(=O)N[C@@H](CCCNC(=N)N)C(=O)N[C@@H](CCCNC(=N)N)C(=O)N[C@H](C(=O)N[C@@H](Cc2c[nH]c3ccccc23)C(=O)N[C@@H](CCCNC(=N)N)C(N)=O)C(C)C)C(C)C)NC(=O)[C@H](CC(=O)O)NC(=O)[C@H](CC(C)C)NC1=O) [SEQ ID NO: 428] | > 30 µM | ≤ 0.4 µM | – | –
WAQKILDEHGQRVWG (HELM PEPTIDE1{W.[meA].Q.K.I.L.D.E.H.[O=C([C@@H](N[*:1])C1CCCCC1)[*:2]].Q.R.V.W.G.[am]}$PEPTIDE1,PEPTIDE1,4:R3-8:R3$$$V2.0; SMILES CC[C@H](C)[C@@H]1NC(=O)[C@@H](NC(=O)[C@H](CCC(N)=O)NC(=O)[C@H](C)N(C)C(=O)[C@@H](N)Cc2c[nH]c3ccccc23)CCCCNC(=O)CC[C@@H](C(=O)N[C@@H](Cc2c[nH]cn2)C(=O)N[C@H](C(=O)N[C@@H](CCC(N)=O)C(=O)N[C@@H](CCCNC(=N)N)C(=O)N[C@H](C(=O)N[C@@H](Cc2c[nH]c3ccccc23)C(=O)NCC(N)=O)C(C)C)C2CCCCC2)NC(=O)[C@H](CC(=O)O)NC(=O)[C@H](CC(C)C)NC1=O) [SEQ ID NO: 403] | > 30 µM | ≤ 0.4 µM | – | –
WAQKILDEHVQRVWG (HELM PEPTIDE1{[ac].W.[meA].Q.K.I.L.D.E.H.V.Q.R.V.W.G.[am]}$PEPTIDE1,PEPTIDE1,5:R3-9:R3$$$V2.0; SMILES CC[C@H](C)[C@@H]1NC(=O)[C@@H](NC(=O)[C@H](CCC(N)=O)NC(=O)[C@H](C)N(C)C(=O)[C@H](Cc2c[nH]c3ccccc23)NC(C)=O)CCCCNC(=O)CC[C@@H](C(=O)N[C@@H](Cc2c[nH]cn2)C(=O)N[C@H](C(=O)N[C@@H](CCC(N)=O)C(=O)N[C@@H](CCCNC(=N)N)C(=O)N[C@H](C(=O)N[C@@H](Cc2c[nH]c3ccccc23)C(=O)NCC(N)=O)C(C)C)C(C)C)NC(=O)[C@H](CC(=O)O)NC(=O)[C@H](CC(C)C)NC1=O) [SEQ ID NO: 402] | > 30 µM | ≤ 0.4 µM | – | –
W[NMeA]QKILDDH[Chg]QRVWG-NH2 (lactam 4-8; not fully specified (N-terminus); printed as H23C11C(O)NH-W-NMeA-QK*ILDD*H-Chg-QRVWG-NH2) [SEQ ID NO: 432] | > 7.5 µM and ≤ 15 µM | ≤ 0.4 µM | 0.8 µM | 14.9 µM
WAQKILNEHGQRVWG (HELM PEPTIDE1{[ac].W.[meA].Q.K.I.L.N.E.H.[O=C([C@@H](N[*:1])C1CCCCC1)[*:2]].Q.R.V.W.G.[am]}$PEPTIDE1,PEPTIDE1,5:R3-9:R3$$$V2.0; SMILES CC[C@H](C)[C@@H]1NC(=O)[C@@H](NC(=O)[C@H](CCC(N)=O)NC(=O)[C@H](C)N(C)C(=O)[C@H](Cc2c[nH]c3ccccc23)NC(C)=O)CCCCNC(=O)CC[C@@H](C(=O)N[C@@H](Cc2c[nH]cn2)C(=O)N[C@H](C(=O)N[C@@H](CCC(N)=O)C(=O)N[C@@H](CCCNC(=N)N)C(=O)N[C@H](C(=O)N[C@@H](Cc2c[nH]c3ccccc23)C(=O)NCC(N)=O)C(C)C)C2CCCCC2)NC(=O)[C@H](CC(N)=O)NC(=O)[C@H](CC(C)C)NC1=O) [SEQ ID NO: 435] | > 30 µM | ≤ 0.4 µM | – | –
WAQKILDEHGQRVWR (HELM PEPTIDE1{[ac].W.[meA].Q.K.I.L.D.E.H.[O=C([C@@H](N[*:1])C1CCCCC1)[*:2]].Q.R.V.W.R.[am]}$PEPTIDE1,PEPTIDE1,5:R3-9:R3$$$V2.0; SMILES CC[C@H](C)[C@@H]1NC(=O)[C@@H](NC(=O)[C@H](CCC(N)=O)NC(=O)[C@H](C)N(C)C(=O)[C@H](Cc2c[nH]c3ccccc23)NC(C)=O)CCCCNC(=O)CC[C@@H](C(=O)N[C@@H](Cc2c[nH]cn2)C(=O)N[C@H](C(=O)N[C@@H](CCC(N)=O)C(=O)N[C@@H](CCCNC(=N)N)C(=O)N[C@H](C(=O)N[C@@H](Cc2c[nH]c3ccccc23)C(=O)N[C@@H](CCCNC(=N)N)C(N)=O)C(C)C)C2CCCCC2)NC(=O)[C@H](CC(=O)O)NC(=O)[C@H](CC(C)C)NC1=O) [SEQ ID NO: 449] | > 30 µM | ≤ 0.4 µM | – | –
WAQKILDDHGQRVWG (HELM PEPTIDE1{[ac].W.[meA].Q.K.I.L.D.D.H.[O=C([C@@H](N[*:1])C1CCCCC1)[*:2]].Q.R.V.W.G.[am]}$PEPTIDE1,PEPTIDE1,5:R3-9:R3$$$V2.0; SMILES CC[C@H](C)[C@@H]1NC(=O)[C@@H](NC(=O)[C@H](CCC(N)=O)NC(=O)[C@H](C)N(C)C(=O)[C@H](Cc2c[nH]c3ccccc23)NC(C)=O)CCCCNC(=O)C[C@@H](C(=O)N[C@@H](Cc2c[nH]cn2)C(=O)N[C@H](C(=O)N[C@@H](CCC(N)=O)C(=O)N[C@@H](CCCNC(=N)N)C(=O)N[C@H](C(=O)N[C@@H](Cc2c[nH]c3ccccc23)C(=O)NCC(N)=O)C(C)C)C2CCCCC2)NC(=O)[C@H](CC(=O)O)NC(=O)[C@H](CC(C)C)NC1=O) [SEQ ID NO: 430] | > 15 µM and ≤ 22.5 µM | ≤ 0.4 µM | – | –
W[NMeA]QKILDDH[Chg]QRVWG-NH2 (lactam 4-8; not fully specified (N-terminus); printed as H17C8C(O)NH-W-NMeA-QK*ILDD*H-Chg-QRVWG-NH2) [SEQ ID NO: 431] | ≤ 7.5 µM | ≤ 0.4 µM | – | –
WAQKILDEHGQRVWG (HELM PEPTIDE1{[O=C(O)CCC(=O)[*:2]].W.[meA].Q.K.I.L.D.E.H.[O=C([C@@H](N[*:1])C1CCCCC1)[*:2]].Q.R.V.W.G.[am]}$PEPTIDE1,PEPTIDE1,5:R3-9:R3$$$V2.0; SMILES CC[C@H](C)[C@@H]1NC(=O)[C@@H](NC(=O)[C@H](CCC(N)=O)NC(=O)[C@H](C)N(C)C(=O)[C@H](Cc2c[nH]c3ccccc23)NC(=O)CCC(=O)O)CCCCNC(=O)CC[C@@H](C(=O)N[C@@H](Cc2c[nH]cn2)C(=O)N[C@H](C(=O)N[C@@H](CCC(N)=O)C(=O)N[C@@H](CCCNC(=N)N)C(=O)N[C@H](C(=O)N[C@@H](Cc2c[nH]c3ccccc23)C(=O)NCC(N)=O)C(C)C)C2CCCCC2)NC(=O)[C@H](CC(=O)O)NC(=O)[C@H](CC(C)C)NC1=O) [SEQ ID NO: 405] | > 15 µM and ≤ 22.5 µM | ≤ 0.4 µM | – | 26.8 µM
H-W[NMeW]E[αMeS]ILDEH[αMeV]QRVWG-NH2 [SEQ ID NO: 38] | > 30 µM | ≤ 0.4 µM | – | –
H-W[NMeW]ESILDEH[αMeV]QRVWG-NH2 [SEQ ID NO: 39] | > 30 µM | ≤ 0.4 µM | – | –
ARLPESILDEHVQRVWP (HELM PEPTIDE1{[bAla].R.L.P.E.S.I.L.D.E.H.V.Q.R.V.W.P.[am]}$$$$V2.0; SMILES CC[C@H](C)[C@H](NC(=O)[C@H](CO)NC(=O)[C@H](CCC(=O)O)NC(=O)[C@@H]1CCCN1C(=O)[C@H](CC(C)C)NC(=O)[C@H](CCCNC(=N)N)NC(=O)CCN)C(=O)N[C@@H](CC(C)C)C(=O)N[C@@H](CC(=O)O)C(=O)N[C@@H](CCC(=O)O)C(=O)N[C@@H](Cc1c[nH]cn1)C(=O)N[C@H](C(=O)N[C@@H](CCC(N)=O)C(=O)N[C@@H](CCCNC(=N)N)C(=O)N[C@H](C(=O)N[C@@H](Cc1c[nH]c2ccccc12)C(=O)N1CCC[C@H]1C(N)=O)C(C)C)C(C)C) [SEQ ID NO: 410] | > 30 µM | > 0.4 µM and ≤ 1 µM | – | –
ARLPESILDEHVQRVWP (HELM PEPTIDE1{[ac].[bAla].R.L.P.E.S.I.L.D.E.H.V.Q.R.V.W.P.[am]}$$$$V2.0; SMILES CC[C@H](C)[C@H](NC(=O)[C@H](CO)NC(=O)[C@H](CCC(=O)O)NC(=O)[C@@H]1CCCN1C(=O)[C@H](CC(C)C)NC(=O)[C@H](CCCNC(=N)N)NC(=O)CCNC(C)=O)C(=O)N[C@@H](CC(C)C)C(=O)N[C@@H](CC(=O)O)C(=O)N[C@@H](CCC(=O)O)C(=O)N[C@@H](Cc1c[nH]cn1)C(=O)N[C@H](C(=O)N[C@@H](CCC(N)=O)C(=O)N[C@@H](CCCNC(=N)N)C(=O)N[C@H](C(=O)N[C@@H](Cc1c[nH]c2ccccc12)C(=O)N1CCC[C@H]1C(N)=O)C(C)C)C(C)C) [SEQ ID NO: 413] | > 30 µM | ≤ 0.4 µM | – | –
W[NMeA]QSILDEHVQKVWG-NH2 (lactam 8-12; not fully specified (N-terminus); printed as H17C8C(O)NH-W-NmeA-QSILDE*HVQK*VWG-NH2) [SEQ ID NO: 438] | ≤ 7.5 µM | ≤ 0.4 µM | – | –

— US20260098059A1 (ENDOMET BIOSCIENCES, published 2026)
